Test [1] addresses T1, NVDP3NANP2 peptide (NVDPNANPNVDPNANPNVDP) (Plasmodium falciparum, acetylated at N-terminus; amidated at C-terminus).
T1 construct: Synthetic peptide; also called long, minor repeat peptide
T1 peptide: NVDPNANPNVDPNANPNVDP
Nature of the test: SPR (Carterra LSA, 25 C), antibody immobilised on the chip, peptide as analyte.

Test [2] has as its target T2, NANP6 peptide (NANPNANPNANPNANPNANPNANP) (Plasmodium falciparum, N-terminal biotin-aminohexanoic acid tag; unmodified C-terminus).
T2 construct: Synthetic peptide (CPC scientific); also called (NANPx6) peptide; long, major repeat peptide
T2 peptide: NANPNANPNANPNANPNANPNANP
The description is as above.

In test [3] the target is T3, recombinant CSP (Plasmodium falciparum circumsporozoite protein, 3D7) (Plasmodium falciparum, UniProt Q7K740 19-374).
T3 construct: also called CSP (3D7)
Nature of the test: SPR (Carterra LSA), IgG captured, CSP analyte.

T3 sequence (Q7K740 19-374 limits assumed): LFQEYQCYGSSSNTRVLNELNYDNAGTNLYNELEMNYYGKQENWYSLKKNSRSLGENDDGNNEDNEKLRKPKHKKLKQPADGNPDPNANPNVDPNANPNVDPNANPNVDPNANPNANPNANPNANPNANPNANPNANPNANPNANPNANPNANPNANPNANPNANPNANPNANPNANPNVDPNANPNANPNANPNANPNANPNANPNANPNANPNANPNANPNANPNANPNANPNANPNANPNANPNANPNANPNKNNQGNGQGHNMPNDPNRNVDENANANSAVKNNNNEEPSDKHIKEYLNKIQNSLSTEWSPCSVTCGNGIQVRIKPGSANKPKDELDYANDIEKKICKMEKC

B1: AB-007163 (antibody, V domains shown)
VH: QVHLLESGGTVVQPGGSLRLSCEASGFIFSDYGMHWVRQVPGKGLEWVAVIWFDGSQKYYGDSVKGRFTVSRDNSKNTLYLQMNTLRADDTGIYYCATDIRGAYKVTDGGFDQWGHGTLVTVSP
VL: QSVLTQPPSISGAPGQRVTISCTGAGSNIGAGYEVHWYQQLPGTAPKLLMFADNNRPSGVPDRFSGSKSGTSASLAITGLQAEDEADYYCQSYDISLKNFVFGTGTTVTVL
Regarding B1, the binding result in test [1] and in test [2] was “binds” in each case.

B2: AB-001558 (antibody, V domains shown)
VH: QVQLVESGGGVVQPGRSLRLSCAASGFTFSSYGMHWVRQAPGKGLEWVAVIWYDGNNKYYVDSVKGRFTISRDNSKNTLYLQMNSLRAEDTAVYYCARDHDADYVEKWGAFDLWGQGTMVTVSS
VL: EIVMTQSPATLSVSPGERATLSCRASQSVSSNLAWYQQKPGQAPRLLIYGASARATGIPARFSGSGSGTEFTLTISSLQSEDFAVYYCQQYNNGRTFGQGTKVEIT
As for B2, in test [3], the Kd was 1.05 nM.

As a reminder, the Kd is a measure of binding affinity in units of concentration.

The record behind these values is US20260226147A1 (ATRECA, published 2026).
